From the Human Domainome abundance scans (Beltran et al. 2025)
± gives the uncertainty stated by the source.

B1: Tesmin, residues 368 to 403; numbered along this chain, Q9Y4I5 (parent)
chain: KGCNCRRSGCLKNYCECYEAQIMCSSICKCIGCKNY

Variants of: B1
Assay: abundance fitness (aPCA) (normalised: wild type 0, dead -1); higher = more abundant; growth selection in yeast, the domain comes from the species named
Conditions: Homo sapiens

In order of rising abundance fitness:
1. KGCNCRRSGCLKNYCECYEAQIMCSSICKMIGCKNY  -1.15 ± 0.25
2. KGCNCRRSGCLKNYCECYEAQIMCSSICKLIGCKNY  -1 ± 0.11
3. KGCNCRRSGCLKNYCECYEAQIMCSSIYKCIGCKNY  -0.973 ± 0.2
4. KGCNCRRSGCLKNYCECYEAQIMCSSICKIIGCKNY  -0.945 ± 0.2
5. KGCNCRRSGCLKNYCECYEAQIMCSSILKCIGCKNY  -0.738 ± 0.12
6. KGCNCRRSGCLKNYCECYEAQIMCFSICKCIGCKNY  -0.711 ± 0.14
7. KGCNCRRSGCLKNYCECYEAQIMCSSIWKCIGCKNY  -0.7 ± 0.091
8. KGCNCRRSGCLKNYCECYEAQIMWSSICKCIGCKNY  -0.647 ± 0.082
9. KGCNCRRSGCLKNYCECYEAQIMCSSIRKCIGCKNY  -0.575 ± 0.07
10. KGCNCRRSGCLKNYCECYEAQIMCSSIQKCIGCKNY  -0.564 ± 0.14
11. KGCNCRRSGCLKNYCECYEAQIMCPSICKCIGCKNY  -0.521 ± 0.15
12. KGCNCRRSGCLKNYCECYEAQIMCVSICKCIGCKNY  -0.509 ± 0.11
13. KGCNCRRSGCLKNYCECYEAQIMCSSICKHIGCKNY  -0.498 ± 0.15
14. KGCNCRRSGCLKNYCECYEAQIMCSSICKTIGCKNY  -0.468 ± 0.12
15. KGCNCRRSGCLKNYCECYEAQIMCWSICKCIGCKNY  -0.45 ± 0.086
16. KGCNCRRSGCLKNYCECYEAQIMCSSICKRIGCKNY  -0.425 ± 0.072
17. KGCNCRRSGCLKNYCECYEAQIMVSSICKCIGCKNY  -0.421 ± 0.088
18. KGCNCRRSGCLKNYCECYEAQIMCSSIVKCIGCKNY  -0.42 ± 0.072
19. KGCNCRRSGCLKNYCECYEAQIMCLSICKCIGCKNY  -0.415 ± 0.081
20. KGCNCRRSGCLKNYCECYEAQIMCSSIMKCIGCKNY  -0.411 ± 0.11
21. KGCNCRRSGCLKNYCECYEAQIMLSSICKCIGCKNY  -0.402 ± 0.089
22. KGCNCRRSGCLKNYCECYEAQIMCCSICKCIGCKNY  -0.393 ± 0.11
23. KGCNCRRSGCLKNYCECYEAQIMMSSICKCIGCKNY  -0.378 ± 0.089
24. KGCNCRRSGCLKNYCECYEAQIMCSSIKKCIGCKNY  -0.377 ± 0.23
25. KGCNCRRSGCLKNYCECYEAQIMCSSICKSIGCKNY  -0.355 ± 0.08
26. KGCNCRRSGCLKNYCECYEAQIMCSSICKVIGCKNY  -0.352 ± 0.087
27. KGCNCRRSGCLKNYCECYEAQIMCDSICKCIGCKNY  -0.334 ± 0.17
28. KGCNCRRSGCLKNYCECYEAQIMCSSICICIGCKNY  -0.334 ± 0.34
29. KGCNCRRSGCLKNYCECYEAQIMCMSICKCIGCKNY  -0.324 ± 0.12
30. KGCNCRRSGCLKNYCECYEAQIMCESICKCIGCKNY  -0.315 ± 0.13
31. KGCNCRRSGCLKNYCECYEAQIMCSSIDKCIGCKNY  -0.3 ± 0.14
32. KGCNCRRSGCLKNYCECYEAQIMTSSICKCIGCKNY  -0.294 ± 0.11
33. KGCNCRRSGCLKNYCECYEAQIMCSSICKGIGCKNY  -0.29 ± 0.066
34. KGCNCRRSGCLKNYCECYEAQIMCHSICKCIGCKNY  -0.269 ± 0.12
35. KGCNCRRSGCLKNYCECYEAQIMCSSICKAIGCKNY  -0.252 ± 0.074
36. KGCNCRRSGCLKNYCECYEAQIMCSSICKKIGCKNY  -0.249 ± 0.12
37. KGCNCRRSGCLKNYCECYEAQIMCSSIAKCIGCKNY  -0.248 ± 0.082
38. KGCNCRRSGCLKNYCECYEAQIMCSSICKEIGCKNY  -0.226 ± 0.076
39. KGCNCRRSGCLKNYCECYEAQIMCSSIGKCIGCKNY  -0.219 ± 0.068
40. KGCNCRRSGCLKNYCECYEAQIMPSSICKCIGCKNY  -0.21 ± 0.1
41. KGCNCRRSGCLKNYCECYEAQIMCSSICKPIGCKNY  -0.209 ± 0.095
42. KGCNCRRSGCLKNYCECYEAQIMSSSICKCIGCKNY  -0.201 ± 0.097
43. KGCNCRRSGCLKNYCECYEAQIMCKSICKCIGCKNY  -0.196 ± 0.11
44. KGCNCRRSGCLKNYCECYEAQIMCSSICKQIGCKNY  -0.196 ± 0.096
45. KGCNCRRSGCLKNYCECYEAQIMCSSIPKCIGCKNY  -0.195 ± 0.1
46. KGCNCRRSGCLKNYCECYEAQIMCSSISKCIGCKNY  -0.169 ± 0.082
47. KGCNCRRSGCLKNYCECYEAQIMCTSICKCIGCKNY  -0.168 ± 0.11
48. KGCNCRRSGCLKNYCECYEAQIMCSSIEKCIGCKNY  -0.157 ± 0.08
49. KGCNCRRSGCLKNYCECYEAQIMASSICKCIGCKNY  -0.15 ± 0.079
50. KGCNCRRSGCLKNYCECYEAQIMCSSITKCIGCKNY  -0.14 ± 0.1
51. KGCNCRRSGCLKNYCECYEAQIMDSSICKCIGCKNY  -0.107 ± 0.1
52. KGCNCRRSGCLKNYCECYEAQIMCSSICPCIGCKNY  -0.091 ± 0.09
53. KGCNCRRSGCLKNYCECYEAQIMQSSICKCIGCKNY  -0.072 ± 0.091
54. KGCNCRRSGCLKNYCECYEAQIMCASICKCIGCKNY  -0.051 ± 0.1
55. KGCNCRRSGCLKNYCECYEAQIMCSSICCCIGCKNY  -0.048 ± 0.15
56. KGCNCRRSGCLKNYCECYEAQIMCSSICMCIGCKNY  -0.016 ± 0.1
57. KGCNCRRSGCLKNYCECYEAQIMGSSICKCIGCKNY  -0.008 ± 0.077
58. KGCNCRRSGCLKNYCECYEAQIMCSSICVCIGCKNY  0.011 ± 0.072
59. KGCNCRRSGCLKNYCECYEAQIMCSSICTCIGCKNY  0.024 ± 0.095
60. KGCNCRRSGCLKNYCECYEAQIMCSSICRCIGCKNY  0.034 ± 0.069
61. KGCNCRRSGCLKNYCECYEAQIMESSICKCIGCKNY  0.051 ± 0.096
62. KGCNCRRSGCLKNYCECYEAQIMCSSICNCIGCKNY  0.054 ± 0.22
63. KGCNCRRSGCLKNYCECYEAQIMCGSICKCIGCKNY  0.093 ± 0.072
64. KGCNCRRSGCLKNYCECYEAQIMCSSICDCIGCKNY  0.171 ± 0.087
65. KGCNCRRSGCLKNYCECYEAQIMCSSICQCIGCKNY  0.18 ± 0.11
66. KGCNCRRSGCLKNYCECYEAQIMCSSICECIGCKNY  0.238 ± 0.084
67. KGCNCRRSGCLKNYCECYEAQIMKSSICKCIGCKNY  0.262 ± 0.28
68. KGCNCRRSGCLKNYCECYEAQIMCSSICHCIGCKNY  0.419 ± 0.26
